Reference: US20230183289A1 (ANPEP, published 2023)

Target: elastase (type I: derived from porcine pancreas, Sigma Aldrich) (porcine, UniProt P00772 27-266)
Assay: cell-based or functional assay

elastase (type I: derived from porcine pancreas, Sigma Aldrich), sequence (P00772 27-266 limits assumed): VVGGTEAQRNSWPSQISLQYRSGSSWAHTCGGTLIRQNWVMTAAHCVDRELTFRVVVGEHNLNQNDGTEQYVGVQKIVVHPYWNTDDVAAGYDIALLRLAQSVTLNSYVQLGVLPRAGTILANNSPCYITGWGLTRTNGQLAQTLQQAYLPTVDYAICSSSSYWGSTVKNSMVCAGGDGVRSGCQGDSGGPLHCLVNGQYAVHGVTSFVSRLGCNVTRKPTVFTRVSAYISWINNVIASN

| Elastase Inhibition Rate (%) | Binder |
| --- | --- |
| 60.5% | QLKY [Sample 35 tetrapeptide QLKY] |
| 55.2% | GCFS [Sample 20 tetrapeptide GCFS] |
| 73.2% | GQLE [Sample 23 tetrapeptide GQLE] |
| 34.5% | GQDP [Sample 34 tetrapeptide GQDP] |
| 90.5% | ELPE [Sample 24 tetrapeptide ELPE] |
| 59% | TQTS [Sample 13 tetrapeptide TQTS] |
| 66.3% | EHQE [Sample 29 tetrapeptide EHQE] |
| 118% | DCVK [Sample 5 tetrapeptide DCVK] |
| 79.3% | KHLE [Sample 28 tetrapeptide KHLE] |
| 88.7% | QKKQ [Sample 2 tetrapeptide QKKQ] |
| 55.6% | QMGQ [Sample 33 tetrapeptide QMGQ] |
| 78.2% | LELP [Sample 26 tetrapeptide LELP] |
| 64% | PEEQ [Sample 32 tetrapeptide PEEQ] |
| 44.5% | KTSG [Sample 7 tetrapeptide KTSG] |

The next lines start with the binder.

| Binder | Elastase Inhibition Rate (%) |
| --- | --- |
| VKTS [Sample 6 tetrapeptide VKTS] | 66.3% |
| TKGE [Sample 38 tetrapeptide TKGE] | 59.3% |
| QPSY [Sample 15 tetrapeptide QPSY] | 63.5% |
| CAPQ [Sample 14 tetrapeptide CAPQ] | 77.2% |
| EGQL [Sample 30 tetrapeptide EGQL] | 69.7% |
| VLLP [Sample 39 tetrapeptide VLLP] | 60.7% |
| SGGS [Sample 8 tetrapeptide SGGS] | 49.6% |
| GSGY [Sample 9 tetrapeptide GSGY] | 56.3% |
| GGSG [Sample 18 tetrapeptide GGSG] | 104% |
| GSSG [Sample 19 tetrapeptide GSSG] | 58.3% |
| SQQV [Sample 12 tetrapeptide SQQV] | 49.3% |
| CFSS [Sample 21 tetrapeptide CFSS] | 47.4% |
| YLEQ [Sample 36 tetrapeptide YLEQ] | 72.3% |
| GQVS [Sample 10 tetrapeptide GQVS] | 33.9% |
| MSYQ [Sample 1 tetrapeptide MSYQ] | 79.4% |
| EVQW [Sample 42 tetrapeptide EVQW] | 49.5% |
| GYVS [Sample 11 tetrapeptide GYVS] | 78.5% |
| PPVD [Sample 4 tetrapeptide PPVD] | 72.5% |
| VEHQ [Sample 40 tetrapeptide VEHQ] | 55.7% |
| QQKQ [Sample 41 tetrapeptide QQKQ] | 72.3% |
| LEVP [Sample 31 tetrapeptide LEVP] | 70.6% |
| SSGG [Sample 17 tetrapeptide SSGG] | 77% |
| GQLK [Sample 27 tetrapeptide GQLK] | 56% |
| PTPQ [Sample 3 tetrapeptide PTPQ] | 69.3% |
| YGGG [Sample 16 tetrapeptide YGGG] | 67.1% |
| FSSG [Sample 22 tetrapeptide FSSG] | 69.1% |
